From article PMC3931812 come the findings set out here.

Some targets named below: BSGPER_(150–175) (human) (UniProt Q99527); BSGPER_(83–93) (human) (UniProt Q99527); BSGPER_(330–351) (human) (UniProt Q99527); BSGPER_(242–259) (human) (UniProt Q99527).
What all share (experiment): other fluorescence titration; Ca2+ titration at saturating CaM: 0.5 µM FRET biosensor, 2 µM X-Rhod5F, 0.1 mg/mL BSA, 0.25 mM Br2BAPTA (3 mM BAPTA and 700 µM CaM for the SMD1 biosensors), 25 mM Tris, 100 mM KCl, pH 7.5, 22°C; start nominally Ca2+-free; free Ca2+ from X-Rhod5F; EC50(Ca2+) from Hill fits

Take “Calmodulin (CaM), recombinant, from the rat CaMI gene (from UniProt P0DP29 1-149) (natural protein)”: the values for the EC50(Ca2+) of complex formation with BSGPER_(150–175) (human), with BSGPER_(330–351) (human) and in the experiment with BSGPER_(242–259) (human) were 2380 nM, 750 nM and 5150 nM, respectively. Moreover, the EC50(Ca2+) of complex formation, species 1 with BSGPER_(83–93) (human) worked out at 130 nM. In addition, the EC50(Ca2+) of complex formation, species 2 in the experiment with BSGPER_(83–93) (human) is 3710 nM.
